Experiments:
[1] = among hemorphin peptides; ref not attached to the sentence (next sentence: Karelin et al., 1994; Moeller et al., 1997); cited from earlier work
Text: Hemorphins are endogenous hemoglobin-derived peptides that were initially reported to have opiate-like activity. They are normally released from hemoglobin beta-chain during physiological or pathophysiological conditions. These peptides are 4 to 10 amino acids long and share a common Tyr-Pro-Trp-Thr tetrapeptide core (YPWT or hemorphin-4) ([Liebmann et al., 1989]; [Zhao et al., 1995]; [Ivanov et al., 1997]; [Nyberg et al., 1997]). A number of different hemorphin peptides have been identified including hemorphin-4, hemorphin-7, and LVV–hemorphin-4, -6, and -7 ([Brantl et al., 1986]; [Piot et al ...

[2] = biological target: T1, AT1R (AT1R-Rluc/Venus-Gαq coupling) (Homo sapiens, UniProt P30556); assay: Real-time BRET kinetics, AT1R-Rluc and Venus-Gαq in HEK293 cells; conditions: 10 µM alone, sequential protocol, after 35 min (Figure 3C)
T1 sequence (P30556 1-359): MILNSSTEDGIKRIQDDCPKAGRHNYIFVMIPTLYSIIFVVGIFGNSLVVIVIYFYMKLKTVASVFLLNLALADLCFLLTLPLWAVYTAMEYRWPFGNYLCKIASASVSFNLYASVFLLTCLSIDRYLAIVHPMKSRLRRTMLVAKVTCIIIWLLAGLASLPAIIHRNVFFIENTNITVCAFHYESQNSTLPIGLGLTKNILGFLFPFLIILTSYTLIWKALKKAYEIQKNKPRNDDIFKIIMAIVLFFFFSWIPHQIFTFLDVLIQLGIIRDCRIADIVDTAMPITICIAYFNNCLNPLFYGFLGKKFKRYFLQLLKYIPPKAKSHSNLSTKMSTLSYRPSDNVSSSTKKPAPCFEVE
Experimental: (§1) HEK293 cells were maintained at 37°C, 5% CO2 in complete medium (Dulbecco modified Eagle medium (DMEM) containing 0.3 mg/ml glutamine, 100 IU/ml penicillin, and 100 µg/ml streptomycin) supplemented with 10% fetal calf serum (GIBCO BRL, Carlsbad, CA, USA). Transient transfections for BRET were carried out in 96-well plates and IP1 and ERK1/2 assays in six-well plates using Lipofectamine 2000 (Invitrogen). […] The plasmid solution was then mixed with 25 µl of serum-free DMEM containing 0.5 µl of Lipofectamine 2000 and incubated for 20 min at room temperature. Cells (10^5 in 150 µl/well) resuspended in DMEM supplemented with 10% fetal calf serum (FCS) were then incubated with the final DNA-Lipofectamine 2000 mix (50 µl/well) and seeded in 96-well plates. All assays were carried out 48 h posttransfection.
For the real-time BRET kinetics, different protocols were used. Cells were first washed with 50 µl/well of PBS and resuspended in 40 µl/well of PBS containing coelenterazine h (5 µM), and BRET signals were measured in real time for ∼5 min to determine the baseline.
All kinetic and the sigmoidal dose–response curves were fitted to appropriate nonlinear regression equations using GraphPad Prism software (San Diego, CA, USA). Statistical analyses were performed with two-way ANOVA and Tukey multiple-comparisons test to determine statistical significance between the different conditions.

[3] = biological target: T1, AT1R (AT1R-Rluc/Venus-Gαq coupling); assay: BRET between AT1R-Rluc and Venus-Gαq (dose-response / 30 min endpoint) in HEK293 cells; format: cell-based; set-up: expressed in transfected cells; host or cells: HEK293, transient transfection (Lipofectamine 2000)
Experimental: All assays were carried out 48 h posttransfection.
BRET technology was used for dose–response analysis as previously described ([Ayoub et al., 2015]; [Ayoub, 2016]; [Ayoub et al., 2016]). […] Following treatment, 10 µl of coelenterazine h (Promega) in PBS was added to a final concentration of 5 µM, and BRET measurements were carried out using the Tristar 2 multilabel plate reader (Berthold, Germany) allowing sequential measurements of light emission at 480 and 540 nm.

AT1R (AT1R-WT) = biological target: T2, AT1R (AT1R-WT) (Homo sapiens, UniProt P30556); conditions: 10 µM irbesartan 15 min, then 5 nM AngII ± 10 µM LVV–hemorphin-7, 30 min, 37°C (Figure 5D)
T2 sequence (P30556 1-359): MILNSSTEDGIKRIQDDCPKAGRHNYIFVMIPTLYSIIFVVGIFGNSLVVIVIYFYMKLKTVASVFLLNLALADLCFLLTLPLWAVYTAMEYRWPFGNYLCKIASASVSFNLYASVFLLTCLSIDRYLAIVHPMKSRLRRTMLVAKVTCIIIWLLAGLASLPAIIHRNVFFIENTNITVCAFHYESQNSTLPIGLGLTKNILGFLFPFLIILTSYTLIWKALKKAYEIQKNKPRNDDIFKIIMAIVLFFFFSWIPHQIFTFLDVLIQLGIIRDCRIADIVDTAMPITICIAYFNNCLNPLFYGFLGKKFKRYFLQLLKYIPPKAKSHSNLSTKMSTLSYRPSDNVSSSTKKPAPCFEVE
Experimental: as §1
Measurement of IP1 accumulation was performed in HEK293 cells expressing either AT1R-Rluc with Venus-Gαq like for BRET assays or untagged AT1R (AT1R-WT) alone using the IP-One Tb kit (Cisbio Bioassays, France) according to manufacturer’s instructions. […] The cells were then lysed by adding the supplied assay reagents, and the assay was incubated for 1 h at room temperature. Fluorescence emission was measured at 620 and 665 nm, 50 µs after excitation at 340 nm using the Tristar 2 multilabel plate reader (Berthold, Germany). […]

AT1R = conditions: ref Li et al., 2018, cited from earlier work
Text: Our seminal finding is of significant importance to hemorphin and GPCR pharmacology and their implication in human physiology. Indeed, in addition to hemorphin’s effect on opioid receptors ([Brantl et al., 1986]; [Davis et al., 1989]; [Liebmann et al., 1989]; [Glämsta et al., 1992]; [Yukhananov et al., 1994]; [Nyberg et al., 1997]; [Szikra et al., 2001]; [Cheng et al., 2012]), we report yet another GPCR member (AT1R) that is a target of hemorphins with the plausible implication in the physiology and pathophysiology of vascular and renal systems. The action of LVV–hemorphin-7 on AT1R is consist ...

[4] = biological target: AT1R-RlucII (angiotensin II type 1 receptor fused to Renilla luciferase) (human) (UniProt P30556)
[5] = biological target: AT1R-RlucII (angiotensin II type 1 receptor fused to Renilla luciferase) (human) (UniProt P30556); remark: listed apart in the source
[6] = biological target: AT1R-RlucII (angiotensin II type 1 receptor fused to Renilla luciferase) (human) (UniProt P30556); remark: listed apart in the source
[7] = biological target: AT1R-RlucII (angiotensin II type 1 receptor fused to Renilla luciferase) (human) (UniProt P30556); remark: listed apart in the source
[8] = biological target: untagged AT1R (AT1R-WT) (human) (UniProt P30556)

Molecule: CC(C)C[C@H](N)C(=O)N[C@H](C(=O)N[C@H](C(=O)N[C@@H](Cc1ccc(O)cc1)C(=O)N1CCC[C@H]1C(=O)N[C@@H](Cc1c[nH]c2ccccc12)C(=O)N[C@H](C(=O)N[C@@H](CCC(N)=O)C(=O)N[C@@H](CCCNC(=N)N)C(=O)N[C@@H](Cc1ccccc1)C(=O)O)[C@@H](C)O)C(C)C)C(C)C [LVV–hemorphin-7]
- stability [1]: most stable form
- BRET increase, LVV–hemorphin-7 alone [2]: ~10%
- EC50 of potentiation of AngII-mediated BRET (in words) ([3]; 15 min preincubation, then 10 nM AngII 20 min (Figure 2E)): micromolar range

Molecule: CCCCC1=NC2(CCCC2)C(=O)N1Cc1ccc(-c2ccccc2-c2nnn[nH]2)cc1 [irbesartan]
- inhibition of AngII-mediated IP1 production and its potentiation by LVV–hemorphin-7 (AT1R (AT1R-WT)): completely abolished
- inhibition of AngII-mediated BRET signals and of their potentiation by LVV–hemorphin-7 ([3]; 10 µM irbesartan 15 min, then 10 nM AngII ± 10 µM LVV–hemorphin-7, 30 min, 37°C (Figure 4A), n = 3): full inhibition

Molecule: NC(CCS)C(=O)O (centres unmarked) [homocysteine]
- binding site on AT1R (AT1R; binding experiments): binding of homocysteine to the orthosteric binding site of AT1R
- positive allosteric modulation of AT1R (AT1R): PAM of AT1R

Molecule: LVVYPWTQRF [LVV–hemorphin-7]
- Log EC50 of LVV–hemorphin-7 for potentiation of the BRET increase between AT1R-Rluc and Venus-Gαq induced by 10 nM AngII (log (concentration unit not given)) [4]: -5.41
- Log EC50 of LVV–hemorphin-7 for potentiation of the BRET increase between AT1R-Rluc and yPET–β-arrestin 2 induced by 10 nM AngII (log (concentration unit not given)) [4]: -5.48
- E max (%) of AngII with LVV–hemorphin-7, BRET dose–response, AT1R-Rluc + Venus-Gαq; AngII without LVV–hemorphin-7 taken as 100% [5]: 109%
- E max (%) of AngII with LVV–hemorphin-7, BRET dose–response, AT1R-Rluc + yPET–β-arrestin 2; AngII without LVV–hemorphin-7 taken as 100% [5]: 104%
- E max (%) of AngII with LVV–hemorphin-7, BRET kinetics 1 (Figures 3A, B), AT1R-Rluc + Venus-Gαq; 10 nM AngII alone taken as 100% [5]: 263%
- E max (%) of AngII with LVV–hemorphin-7, BRET kinetics 1 (Figures 3A, B), AT1R-Rluc + yPET–β-arrestin 2; 10 nM AngII alone taken as 100% [5]: 240%
- E max (%) of AngII with LVV–hemorphin-7, BRET kinetics 2 (Figures 3C, D), AT1R-Rluc + Venus-Gαq; 10 nM AngII alone taken as 100% [5]: 171%
- E max (%) of AngII with LVV–hemorphin-7, BRET kinetics 2 (Figures 3C, D), AT1R-Rluc + yPET–β-arrestin 2; 10 nM AngII alone taken as 100% [5]: 200%
- BRET increase in sequential real-time kinetics (AT1R-Rluc with Venus-Gαq or yPET–β-arrestin 2), 10 µM LVV–hemorphin-7 alone, after 35 min [6]: 10%
- ERK1/2 phosphorylation (folds over untreated cells), cells coexpressing AT1R-Rluc and Venus-Gαq, cotreatment with 10 nM AngII and 10 µM LVV–hemorphin-7 for 5 min [7]: 6.71 folds
- ERK1/2 phosphorylation (folds over untreated cells), cells coexpressing AT1R-Rluc and Venus-Gαq, pretreatment with LVV–hemorphin-7 for 15 min followed by AngII for 5 min [7]: 6.7 folds
- ERK1/2 phosphorylation (folds over untreated cells), cells expressing AT1R-WT, 10 µM LVV–hemorphin-7 alone, 5 min [8]: 6.74 folds
- ERK1/2 phosphorylation (folds over untreated cells), cells expressing AT1R-WT, cotreatment with AngII and LVV–hemorphin-7 [8]: 12.8 folds
